# The DeepSol protein solubility set
# Assay: soluble on expression in E. coli; label from the status in PepcDB or PDB records
row,Sequence,soluble on expression in E. coli
1,DITLSKLAMGGKPTPFGLDESELSNALMLLRDCPQVSLKGFHFHLMSHQLDVERHLALMQRYFQVVKTWQQEFELGELMINLGGGMGINYQNPEQHFPWMEFCDKLEFLIAKEQVQDWTLRFECGRFITAACGYYVMEVLDIKQNLGESYVIARGGTHHFRTPAAQSHDHPFVILKSEQHHEISHPIQHAQATFVGQLCTPKDVLARNQHVAHVDIGDYVVFTLAGAYAWNISHQNFLMHEPPIFHYF,not soluble
2,DLYFNPRFLADDPQAVADLSRFENGQELPPGTYRVDIYLNNGYMATRDVTFNTGDSEQGIVPCLTRAQLASMGLNTASVAGMNLLADDACVPLTTMVQDATAHLDVGQQRLNLTIPQAFMSNRAR,soluble
3,DNPINIAVPGVAQQNVSATINNGTLTRRGNLWIARPTKVGSEAIISVTAQSGGRTIQMAKTTLRVRALPDPLPYIEYKDVQGNTKRFKGGRLGKREILAAGGIKAALDDDLLEVNYTVVKFQLVFYDSMGNSIPEVSDGASFSERQKRQIQNLGKGKRFYVTEVIARGPDGIERKIPAIEVIVN,not soluble
4,DPDTRIPVINLEDGTRLVGEDAPKNKDLVEWLKLHPTYTVDMPSYVPKNADVLFSSFQKPKQKRHRCRNPNKLDINTLTGEERVPVVNKRNGKKMGGAMAPPMKDLPRWLEENPEFAVAPDWTD,soluble
5,DSSALPTKRKTVKLFWRELKLAGGHGVSASRFGPCATLWASLDPVSVDTARLEHLFESRAKEVLPSKKAGEGRRTMTTVLDPKRSNAINIGLTTLPPVHVIKAALLNFDEFAVSKDGIEKLLTMMPTEEERQKIEEAQLANPDIPLGPAENFLMTLASIGGLAARLQLWAFKLDYDSMEREIAEPLFDLKVGMEQLVQNATFRCILATLLAVGNFLNGSQSSGFELSYLEKVSEVKDTVRRQSLLHHLCSLVLQTRPESSDLYSEIPALTRCAKVD,not soluble
6,DTPEPPLHNFYCSKLLDLVFLLDGSSMLSEAEFEVLKAFVVGMMERLHISQKRIRVAVVEYHDGSRAYLELKARKRPSELRRITSQIKYTGSQVASTSEVLKYTLFQIFGKIDRPEASHITLLLTASQEPPRMARNLVRYVQGLKKKKVIVIPVGIGPHASLKQIRLIEKQAPENKAFLLSGVDELEQRRDEIVSYLCDLAPEAPAPT,soluble
7,DVKVQGCVEDADLLIVGFGGTYGHLYSAMEEMNHAGKKVALAHFVHLNPLPHNTAEVLKKYKKVVVAEQNLGQFAGYLRMKVDGFVPYQFNEVKGQPFVVSELVDAFTEILNK,not soluble
8,DVQLQESGPGLVKPSQSLSLTCTVTGYSITNNYAWNWIRQFPGNKLEWMGYINYSGTTSYNPSLKSRISITRDTSKNQFFLQLNSVTTEDTATYFCVRGYDYFAMDYWGQGTSVTVSSAKTTPPSVYPLAPGSAAQTNSMVTLGCLVKGYFPEPVTVTWNSGSLSSGVHTFPAVLQSDLYTLSSSVTVPSSTWPSETVTCNVAHPASSTKVDKKIVPRDCG,soluble
9,DVVSYVSHATQQRLQNLVEKISETAQQKNFSYKDDDRYEQASDVRAQLKFFEQLDQIEKQRKDEQEREILMRAAKSRSRQEDPEQLRLKQKAKEMQQQELAQMRQRDANLTALAAIGPRKKRKVDCPGPGSGAEGSGPGSVVPGSSGVGTPRQFTRQRITRVNLRDLIFCLENERETSHSLLLYKAFLK,soluble
10,DVVVTQTPLSLPVSLGDQASISCRSSEVIVTRNGYTPIEWYLQKPGQSPKLLIYKAYKRFPGVPDRFSGSGSGTDFTLKISRVEAEDLGVYYCFDGSTVPPKFGGGTKLEIKRADAAPTVSIFPPSSEQLTSGGASVVCFLNNFYPKDINVKWKIDGSERQNGVLNSWTDQDSKDSTYSMSSTLTLTKDEYERHNSYTCEATHKTSTSPIVKSFNRDEC,soluble
11,DYESPIVNVVEACAPAVVKIDVVKTVKTSFFDPYFEQFFKKWFGELPPGFERQVASLGSGFIFDPEGYILTNYHVVGGADNITVTMLDGSKYDAEYIGGDEELDIAVIKIKASDKKFPYLEFGDSDKVKIGEWAIAIGNPLGFQHTVTVGVVSATNRRIPKPDGSGYYVGLIQTDAAINPGNSGGPLLNIHGEVIGINTAIVNPQEAVNLGFAIPINTVKKFLDTILTQKKVEKAYLGV,soluble
12,EAPLLYGDSSPEIVLVGHGSTYGVIKEIVDIFSKDKKIAMMHFSQIYPFPERDRFDYIEFLKNANLVISVENNATGQFAKLMRAETGFEFARQILKYDGRPFTIEKLKEEIDACL,not soluble
13,EDDEDYGDLGGCPFLVAENKTGYPTIVACKQDCNGTTETAPNGTRCFSIGDEGLRRMTANLPYDCPLGQCSNGDCIPKETYEVCYRRNWRDKKNHHHHHH,soluble
14,EEGLSGSKTFKIITKDYDIMNKEIKERLGRYCTFTKVTIDEENNSFVEISCVINKLEEQKLKEIINDVDPDAFIAIYDTAEVKAGNMKKSDIY,soluble
15,EEPTIGDIYNGKVTSIMQFGCFVQLEGLRKRWEGLVHISELRREGRVANVADVVSKGQRVKVKVLSFTGTKTSLSMKDVDQETGEDLNPNRRRNLV,soluble
16,EEVTVVAFAKQKKESVIGSIQTVKPAELKTPSSNLTTSLAGRMAGVIAYQRSGEPGKDNANFFIRGVTTFGYKKDPLILLDNVEVSSDDLARVQPDDIASFSVLKDATSTALYGARGANGVILVTTKEGKEG,not soluble

row,Sequence,soluble on expression in E. coli
1,EFKDVFIEKQKGEILGVVIVESGWGSILPTVIIANMMHGGPAEKSGKLNIGDQIMSINGTSLVGLPLSTCQSIIKGLKNQSRVKLNIVRCPPVTTVLIRRPDLRYQLGFSVQNGIICSLMRGGIAERGGVRVGHRIIEINGQSVVATPHEKIVHILSNAVGEIHMKTMPAAMYRLLTAQEQPVYI,soluble
2,EFSGSFNRQFKLNKPVIPVNTEYVTRKEFNEYKDSNDQRLTKIENKVDKLEIKVDKLEKKVDKLEVKVDKLVETVNAQGEDLNNFKVEVRGTLQSQGETLQLILQTLQGMSKRLDSVEGRLDSMDGRLDSMETRLDKID,soluble
3,EHGPVTFVPDTPIESRARLSLPKQLVLRQSIVGAEVGVWTGETIPVRTCFGPLIGQQSHSMEVAEWTDKAVNHIWKIYHNGVLEFCIITTDENECNWMMFVRKARNREEQNLVAYPHDGKIFFCTSQDIPPENELLFYYSRDYAQQIGVPE,soluble
4,EHQAILSKRLESVESDIRLEQNTMDMTRIDARKMQMTGDLIMKNSVTVGGIAGASGQYAATQERSEQQISQVNNRVASTASDEARESSRKSTSLIQEMLKTMESINQSKASALAAIAGNIRA,not soluble
5,EIFSQELTQREANVKKVHENLEELQKKLDHTSFAHKEDRDRLEAQIAQKEQEQKAKLAEYDQKVQNEFDARERAEREREAARGDAAAEKQRLASLLKDLEDDASGYNRLRPSKPMLSEEDTNILRQLFLSSAVSGSGKFSFQDLKQVLAKYADTIPEGPLKKLFVMVENDTKGRMSYITLVAVANDLAALVADFRKIDTNSNGTLSRKEFREHFVRLGFDKKSVQDALFRYADEDESDDVGFSEYVHLGLCLLVLRILYAFADFDKSGQLSKEEVQKVLEDAHIPESARKKFEHQFSVVDVDDSKSLSYQEFVMLVLLMFHDD,soluble
6,EKDKYALALKDKGNQFFRNKKYDDAIKYYNWALELKEDPVFYSNLSACYVSVGDLKKVVEMSTKALELKPDYSKVLLRRASANEGLGKFADAMFDLSVLSLNGDFNDASIEPMLERNLNKQAMSKLKEKFGDIDTATATPTELSTQPAKERKDKQENLPSVTSMASFFGIFKPELTFANYDESNEADKELMNGLSNLYKRSPESYDKADESFTKAARLFEEQLDKNNEDEKLKEKLAISLEHTGIFKFLKNDPLGAHEDIKKAIELFPRVNSYIYMALIMADRNDSTEYYNYFDKALKLDSNNSSVYYHRGQMNFILQNYDQAGKDFDKAKELDPENIFPYIQLACLAYRENKFDDCETLFSEAKRKFPEAPEVPNFFAEILTDKNDFDKALKQYDLAIELENKLDGIYVGIAPLVGKATLLTRNPTVENFIEATNLLEKASKLDPRSEQAKIGLAQMKLQQEDIDEAITLFEESADLARTMEEKLQAITFAEAAKVQQRIRSDPVLAKKIQET,soluble
7,ELLVVTGMSGAGKSLVIQSLEDMGFFCVDNLPPVLLPKFVELMAQGNPSLQKVAIAIDLRGKELFKSLVKEIDIIKSRNDVILDVMFLEAKTEKIISRYKESRRAHPLNEQGQRSLIDAINEEREHLSEIRSIANYVIDTTKLKPKELKQRISKFYLDENFETFTINVTSFGFKHGIQMDADLVFDVRFLPNPYYVEELRPFTGLDEPVYNYVMKWKETQIFFDKLTDLLKFMIPGYKKEGKSQLVIAIGCTGGQHRSVALAKRLAEYLNEIFEYNVYVHHRDAHIE,not soluble
8,ENKDNKGQIKTLDRDGQSITSYSFFAKNGDNVEKINVEVDQRQLSKDESLKLMENSRNKLVKLVLDKNKSANHIDKPLNLIREIPDTDISVTWDISDSRVLNYDGQIMSDVSQEGTIVNLTANMELNELTLSYTFAVNVFPRNYKGDIQEAVQEYINSQDSEQKKIFLPENISGEKISYYKSASK,soluble
9,ENQYVMKLANSLFVQNGFHVNEEFLQMLKMYFNAEVNHVDFSQNVAVANSINKWVENYTNSLLKDLVSPEDFDGVTNLALINAVYFKGNWKSQFRPENTRTFSFTKDDESEVQIPMMYQQGEFYYGEFSDGSNEAGGIYQVLEIPYEGDEISMMLALSRQEVPLATLEPLLKAQLIEEWANSVKKQKVEVYLPRFTVEQEIDLKDILKALGVTEIFIKDANLTAMSDKKELFLSKAVHKSCIEVNEEGSEAAAASGMIAIS,soluble
10,ENRLVVIVLRGAMDGLDLVRPVGDPLFATYRPRLAQDGQKGEGGVIPLSEGFVLHPLLNGLSALWRKGELGFVHAVSTPYRDKRSHFDGQDMLEAGTGPDVPPGVARDGWLNRMLQAVPGLEAETAWAIGRDPLPLMEGEAPVRVWSPDLALDLSAQNRRLLEELYHEDPLFRDVGTEALELAAKLSHGAGGEGPRDAKKDLAAIDELAAFAASQLRGAARIAAFSLSGWDTHRNQAAAIRKPLLKLQRMLLQLQAELGPVWDRTAILAMTEFGRTARENGSAGTDHGTAGAMIMAGGAIRGGRVLGRWPGLDEAALYDRRDLMPTSDVRAWAAWTMRSLYGFDRELLERSVFPGIEMREDPGLVL,not soluble
11,EPGSSEGLGLLNVHTVLTGSKQLTKTEAVLNLNNQKAKVKGYEIHVGRSQVLDEQPLELDNGECDGAISECGQIMGTYLHGFFDEAEALNLITEWVNGTQVKQQDFEVLKEQGINRIADAIEQHMNLDFLFK,not soluble
12,ERVVINISGLRFETQLKTLAQFPETLLGDPKKRMRYFDPLRNEYFFDRNRPSFDAILYYYQSGGRLRRPVNVPLDIFSEEIRFYELGEEAMEMFREDEG,soluble
13,ESICLIGHSLGGDLARYFASEFEEVKKLILLDGGYLDLDKILPLDTELEETKNYIKSQIVSDLDVLTSKEKSEAKHWSENMEKAVRQSYHWNVEYNRYELAINYENIEAILRLRRKIQAFKREVGDTLFISPRYPNEATWREEALKELPDYFDTIFLENFGHELYTQAPKEIASLMNEWLAYFL,not soluble
14,ESPEIQVEEQSFNFGLIPEEKGSVGHSFKFRNSGTAPLLITRVMADCGCTTPTWPEEAIAPGEEAEIRVLFDPVGRSGAFVKRIRVFSNAQSSPLE,not soluble
15,ESTTVKMYEALPTGPGKEVGTVVISEAPGGLHFKVNMEKLTPGYHGFHVHENPSCAPGEKDGKIVPALAAGGHYDPGNTHHHLGPEGDGHMGDLPRLSANADGKVSETVVAPHLKKLAEIKQRSLMVHVGGDNYSDKPEPLGGGGARFACGVIE,soluble
